Experimental data: patent publication US20050064507

Legend:
[1] = biological target: T1, ARHGAP4 peptide PLRKSSLKKGGR (SEQ ID NO:193) (not fully specified)
T1 chain: PLRKSSLKKGGR

[2] = biological target: T2, BCL10 peptide SCRTSSRKRAGK (SEQ ID NO:216) (not fully specified)
T2 chain: SCRTSSRKRAGK

[3] = biological target: T3, BRCA1 peptide LRRKSSTRHIHA (SEQ ID NO:187) (not fully specified)
T3 chain: LRRKSSTRHIHA

[4] = biological target: T4, BTK peptide PGSSHRKTKK (SEQ ID NO:195) (not fully specified)
T4 chain: PGSSHRKTKK

[5] = biological target: T5, CDC2L5 peptide RHSRSRSRHRLS (SEQ ID NO:213) (not fully specified)
T5 chain: RHSRSRSRHRLS

[6] = biological target: T6, CDC2L5 peptide SRRRSPSYSRHS (SEQ ID NO:214) (not fully specified)
T6 chain: SRRRSPSYSRHS

[7] = biological target: T7, CHD1 peptide EGRRSRSRRYSG (SEQ ID NO:205) (not fully specified)
T7 chain: EGRRSRSRRYSG

[8] = biological target: T8, CLK2 peptide RRRRRRSRTFSR (SEQ ID NO:177) (not fully specified)
T8 chain: RRRRRRSRTFSR

[9] = biological target: T9, CLK3 peptide RWKRRRSYSREH (SEQ ID NO:196) (not fully specified)
T9 chain: RWKRRRSYSREH

[10] = biological target: T10, DAP-kinase 1 peptide KKRRTKSSRRGV (SEQ ID NO:175) (not fully specified)
T10 chain: KKRRTKSSRRGV

[11] = biological target: T11, DOCK2 peptide VKLRRSKKRTKR (SEQ ID NO:170) (not fully specified)
T11 chain: VKLRRSKKRTKR

[12] = biological target: T12, FLJ20719 peptide RRGRRSTKKRRR (SEQ ID NO:171) (not fully specified)
T12 chain: RRGRRSTKKRRR

[13] = biological target: T13, GPR105 peptide KSSRNSTSVKKK (SEQ ID NO:206) (not fully specified)
T13 chain: KSSRNSTSVKKK

[14] = biological target: T14, GRK6 peptide GNRKGKSKKWRQ (SEQ ID NO:192) (not fully specified)
T14 chain: GNRKGKSKKWRQ

[15] = biological target: T15, HePTP peptide EQQRRALSFRQ (SEQ ID NO:200) (not fully specified)
T15 chain: EQQRRALSFRQ

[16] = biological target: T16, IDN3 peptide VSRPRKSRKRVD (SEQ ID NO:208) (not fully specified)
T16 chain: VSRPRKSRKRVD

[17] = biological target: T17, LRMP peptide RFSRRSSSWRIL (SEQ ID NO:204) (not fully specified)
T17 chain: RFSRRSSSWRIL

[18] = biological target: T18, MAST3 peptide ARRSKRSRRRET (SEQ ID NO:183) (not fully specified)
T18 chain: ARRSKRSRRRET

[19] = biological target: T19, MAST3 peptide TQDRRKSLFKKI (SEQ ID NO:201) (not fully specified)
T19 chain: TQDRRKSLFKKI

[20] = biological target: T20, MAST4 peptide VRRSKKSKKKES (SEQ ID NO:203) (not fully specified)
T20 chain: VRRSKKSKKKES

[21] = biological target: T21, NKTR peptide RSRSYSRSRSR (SEQ ID NO:211) (not fully specified)
T21 chain: RSRSYSRSRSR

[22] = biological target: T22, PCTK2 peptide KKFKRRLSLTLR (SEQ ID NO:185) (not fully specified)
T22 chain: KKFKRRLSLTLR

[23] = biological target: T23, PSCDBP peptide FLRRSSSRRNRS (SEQ ID NO:180) (not fully specified)
T23 chain: FLRRSSSRRNRS

[24] = biological target: T24, S1P1 receptor peptide RTRSRRLTFRK (SEQ ID NO:169) (not fully specified)
T24 chain: RTRSRRLTFRK

[25] = biological target: T25, SHP-1 peptide DKEKSKGSLKRK (SEQ ID NO:209) (not fully specified)
T25 chain: DKEKSKGSLKRK

[26] = biological target: T26, TIAM1 peptide AMSRSASKRRSR (SEQ ID NO:168) (not fully specified)
T26 chain: AMSRSASKRRSR

[27] = biological target: T27, WNK1 peptide KRHYRKSVRSRS (SEQ ID NO:179) (not fully specified)
T27 chain: KRHYRKSVRSRS

[28] = biological target: T28, WNK1 peptide RRRRHTMDKDSR (SEQ ID NO:190) (not fully specified)
T28 chain: RRRRHTMDKDSR

[29] = biological target: T29, WNK1 peptide RRRRPTKSKGSK (SEQ ID NO:198) (not fully specified)
T29 chain: RRRRPTKSKGSK

[30] = biological target: T30, casein kinase I gamma 2 peptide KRRKRKSLQRHK (SEQ ID NO:194) (not fully specified)
T30 chain: KRRKRKSLQRHK

[31] = biological target: T31, forkhead (Drosophila)-like 16 peptide RRERSRSRRKQ (SEQ ID NO:176) (not fully specified)
T31 chain: RRERSRSRRKQ

[32] = biological target: T32, gap-43 peptide SFRGHITRKKLK (SEQ ID NO:207) (not fully specified)
T32 chain: SFRGHITRKKLK

[33] = biological target: T33, myosin IF peptide KKERRRNSINRN (SEQ ID NO:174) (not fully specified)
T33 chain: KKERRRNSINRN

[34] = biological target: T34, nucleolar phosphoprotein p130 peptide TKKKRGSYRGGS (SEQ ID NO:182) (not fully specified)
T34 chain: TKKKRGSYRGGS

[35] = biological target: T35, ribosomal protein S6 peptide TGERKRKSVRG (SEQ ID NO:181) (not fully specified)
T35 chain: TGERKRKSVRG

[36] = biological target: T36, serine/threonine-protein kinase PRP4 peptide GRRRRSRSKVK (SEQ ID NO:189) (not fully specified)
T36 chain: GRRRRSRSKVK

[37] = biological target: T37, serine/threonine-protein kinase PRP4 peptide RGRRSRSRLRRR (SEQ ID NO:199) (not fully specified)
T37 chain: RGRRSRSRLRRR

B1: PKC-theta (protein)
chain: MSPFLRIGLSNFDCGSCQSCQGEAVNPYCAVLVKEYVESENGQMYIQKKPTMYPPWDSTFDAHINKGRVMQIIVKGKNVDLISETTVELYSLAERCRKNNGKTEIWLELKPQGRMLMNARYFLEMSDTKDMNEFETEGFFALHQRRGAIKQAKVHHVKCHEFTATFFPQPTFCSVCHEFVWGLNKQGYQCRQCNAAIHKKCIDKVIAKCTGSAINSRETMFHKERFKIDMPHRFKVYNYKSPTFCEHCGTLLWGLARQGLKCDACGMNVHHRCQTKVANLCGINQKLMAEALAMIESTQQARCLRDTEQIFREGPVEIGLPCSIKNEARPPCLPTPGKREPQGISWESPLDEVDKMCHLPEPELNKERPSLQIKLKIEDFILHKMLGKGSFGKVFLAEFKKTNQFFAIKALKKDVVLMDDDVECTMVEKRVLSLAWEHPFLTHMFCTFQTKENLFFVMEYLNGGDLMYHIQSCHKFDLSRATFYAAEIILGLQFLHSKGIVYRDLKLDNILLDKDGHIKIADFGMCKENMLGDAKTNTFCGTPDYIAPEILLGQKYNHSVDWWSFGVLLYEMLIGQSPFHGQDEEELFHSIRMDNPFYPRWLEKEAKDLLVKLFVREPEKRLGVRGDIRQHPLFREINWEELERKEIDPPFRPKVKSPFDCSNFDKEFLNEKPRLSFADRALINSMDQNMFRNFSFMNPGMERLIS
[1]
  in vitro phosphorylation (% of best substrate): 35
[2]
  in vitro phosphorylation (% of best substrate): 11
[3]
  in vitro phosphorylation (% of best substrate): 48
[4]
  in vitro phosphorylation (% of best substrate): 33
[5]
  in vitro phosphorylation (% of best substrate): 13
[6]
  in vitro phosphorylation (% of best substrate): 13
[7]
  in vitro phosphorylation (% of best substrate): 22
[8]
  in vitro phosphorylation (% of best substrate): 66
[9]
  in vitro phosphorylation (% of best substrate): 32
[10]
  in vitro phosphorylation (% of best substrate): 80
[11]
  in vitro phosphorylation (% of best substrate): 98
[12]
  in vitro phosphorylation (% of best substrate): 92
[13]
  in vitro phosphorylation (% of best substrate): 19
[14]
  in vitro phosphorylation (% of best substrate): 35
[15]
  in vitro phosphorylation (% of best substrate): 26
[16]
  in vitro phosphorylation (% of best substrate): 17
[17]
  in vitro phosphorylation (% of best substrate): 22
[18]
  in vitro phosphorylation (% of best substrate): 55
[19]
  in vitro phosphorylation (% of best substrate): 25
[20]
  in vitro phosphorylation (% of best substrate): 24
[21]
  in vitro phosphorylation (% of best substrate): 16
[22]
  in vitro phosphorylation (% of best substrate): 51
[23]
  in vitro phosphorylation (% of best substrate): 65
[24]
  in vitro phosphorylation (% of best substrate): 100
[25]
  in vitro phosphorylation (% of best substrate): 17
[26]
  in vitro phosphorylation (% of best substrate): 100
[27]
  in vitro phosphorylation (% of best substrate): 65
[28]
  in vitro phosphorylation (% of best substrate): 40
[29]
  in vitro phosphorylation (% of best substrate): 28
[30]
  in vitro phosphorylation (% of best substrate): 34
[31]
  in vitro phosphorylation (% of best substrate): 66
[32]
  in vitro phosphorylation (% of best substrate): 18
[33]
  in vitro phosphorylation (% of best substrate): 83
[34]
  in vitro phosphorylation (% of best substrate): 61
[35]
  in vitro phosphorylation (% of best substrate): 62
[36]
  in vitro phosphorylation (% of best substrate): 43
[37]
  in vitro phosphorylation (% of best substrate): 27
